Laboratory results: US20170369595A1 (Hoffmann-La Roche, published 2017)

B1: BsAb CD33-Dig(SS)-CD33 (bispecific antibody)
light: DIQLTQSPSTLSASVGDRVTITCRASESLDNYGIRFLTWFQQKPGKAPKLLMYAASNQGSGVPSRFSGSGSGTEFTLTISSLQPDDFATYYCQQTKEVPWSFGQGTKVEVKRTVAAPSVFIFPPSDEQLKSGTASVVCLLNNFYPREAKVQWKVDNALQSGNSQESVTEQDSKDSTYSLSSTLTLSKADYEKHKVYACEVTHQGLSSPVTKSFNRGEC
heavy 1: EVQLVQSGAEVKKPGSSVKVSCKASGYTITDSNIHWVRQAPGQSLEWIGYIYPYNGGTDYNQKFKNRATLTVDNPTNTAYMELSSLRSEDTAFYYCVNGNPWLAYWGQGTLVTVSSASTKGPSVFPLAPSSKSTSGGTAALGCLVKDYFPEPVTVSWNSGALTSGVHTFPAVLQSSGLYSLSSVVTVPSSSLGTQTYICNVNHKPSNTKVDKKVEPKSCGGGGSGGGGSGGGGSGGGGSQVQLVESGGGLVKPGGSLRLSCAASGFTFSDYAMSWIRQAPGKCLEWVSSINIGATYIYYADSVKGRFTISRDNAKNSLYLQMNSLRAEDTAVYYCARPGSPYEYDKAYYSMAYWGQGTTVTVSSGQPREPQVYTLPPCRDELTKNQVSLWCLVKGFYPSDIAVEWESNGQPENNYKTTPPVLDSDGSFFLYSKLTVDKSRWQQGNVFSCSVMHEALHNHYTQKSLSLSPGK
heavy 2: EVQLVQSGAEVKKPGSSVKVSCKASGYTITDSNIHWVRQAPGQSLEWIGYIYPYNGGTDYNQKFKNRATLTVDNPTNTAYMELSSLRSEDTAFYYCVNGNPWLAYWGQGTLVTVSSASTKGPSVFPLAPSSKSTSGGTAALGCLVKDYFPEPVTVSWNSGALTSGVHTFPAVLQSSGLYSLSSVVTVPSSSLGTQTYICNVNHKPSNTKVDKKVEPKSCGGGGSGGGGSGGGGSGGGGSDIQMTQSPSSLSASVGDRVTITCRASQDIKNYLNWYQQKPGKAPKLLIYYSSTLLSGVPSRFSGSGSGTDFTLTISSLQPEDFATYYCQQSITLPPTFGCGTKVEIKGQPREPQVCTLPPSRDELTKNQVSLSCAVKGFYPSDIAVEWESNGQPENNYKTTPPVLDSDGSFFLVSKLTVDKSRWQQGNVFSCSVMHEALHNHYTQKSLSLSPGK
notes: Trivalent, bispecific; no CH2; (Gly4Ser)4 connectors; In the FACS assay it carried Dig-Cy5 as payload
B2: BsAb Dig-CD33-Dig (bispecific antibody)
light: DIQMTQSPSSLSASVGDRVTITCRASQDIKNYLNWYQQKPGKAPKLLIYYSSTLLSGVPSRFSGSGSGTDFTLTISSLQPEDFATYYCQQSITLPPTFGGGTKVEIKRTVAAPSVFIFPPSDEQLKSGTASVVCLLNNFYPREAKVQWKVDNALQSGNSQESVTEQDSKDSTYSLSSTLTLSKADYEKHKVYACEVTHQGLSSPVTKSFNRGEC
heavy 1: QVQLVESGGGLVKPGGSLRLSCAASGFTFSDYAMSWIRQAPGKGLEWVSSINIGATYIYYADSVKGRFTISRDNAKNSLYLQMNSLRAEDTAVYYCARPGSPYEYDKAYYSMAYWGQGTTVTVSSASTKGPSVFPLAPSSKSTSGGTAALGCLVKDYFPEPVTVSWNSGALTSGVHTFPAVLQSSGLYSLSSVVTVPSSSLGTQTYICNVNHKPSNTKVDKKVEPKSCGGGGSGGGGSGGGGSGGGGSEVQLVQSGAEVKKPGSSVKVSCKASGYTITDSNIHWVRQAPGQSLEWIGYIYPYNGGTDYNQKFKNRATLTVDNPTNTAYMELSSLRSEDTAFYYCVNGNPWLAYWGQGTLVTVSSGQPREPQVYTLPPCRDELTKNQVSLWCLVKGFYPSDIAVEWESNGQPENNYKTTPPVLDSDGSFFLYSKLTVDKSRWQQGNVFSCSVMHEALHNHYTQKSLSLSPGK
heavy 2: QVQLVESGGGLVKPGGSLRLSCAASGFTFSDYAMSWIRQAPGKGLEWVSSINIGATYIYYADSVKGRFTISRDNAKNSLYLQMNSLRAEDTAVYYCARPGSPYEYDKAYYSMAYWGQGTTVTVSSASTKGPSVFPLAPSSKSTSGGTAALGCLVKDYFPEPVTVSWNSGALTSGVHTFPAVLQSSGLYSLSSVVTVPSSSLGTQTYICNVNHKPSNTKVDKKVEPKSCGGGGSGGGGSGGGGSGGGGSDIQLTQSPSTLSASVGDRVTITCRASESLDNYGIRFLTWFQQKPGKAPKLLMYAASNQGSGVPSRFSGSGSGTEFTLTISSLQPDDFATYYCQQTKEVPWSFGQGTKVEVKGQPREPQVCTLPPSRDELTKNQVSLSCAVKGFYPSDIAVEWESNGQPENNYKTTPPVLDSDGSFFLVSKLTVDKSRWQQGNVFSCSVMHEALHNHYTQKSLSLSPGK
notes: as for B1

Target: T1, CD33 (UniProt P20138 18-364, limits assumed)
T1 construct: whole, on cells; Endogenous antigen on Molm13 cells; also called cell surface antigen CD33; CD33-expressing Molm13 cells
T1 sequence (P20138 18-364 limits assumed): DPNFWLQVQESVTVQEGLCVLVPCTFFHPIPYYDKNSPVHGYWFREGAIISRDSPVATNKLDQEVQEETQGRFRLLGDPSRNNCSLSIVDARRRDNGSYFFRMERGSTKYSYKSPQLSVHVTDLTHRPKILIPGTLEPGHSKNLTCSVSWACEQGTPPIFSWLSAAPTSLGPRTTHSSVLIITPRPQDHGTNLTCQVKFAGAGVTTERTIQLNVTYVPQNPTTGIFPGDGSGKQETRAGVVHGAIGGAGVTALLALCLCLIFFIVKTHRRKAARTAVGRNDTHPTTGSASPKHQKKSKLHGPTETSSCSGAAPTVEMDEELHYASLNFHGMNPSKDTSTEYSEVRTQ
Test: FACS on CD33-expressing Molm13 cells, Dig-Cy5 as payload
Experimental: Simultaneous antigen binding of the antibodies generated in example 1 was analyzed by FACS analysis on LeY-expressing MCF7 cells, CD33-expressing Molm13 cells and GPC3-expressing HepG2 cells using Dig-Cy5 as payload to address hapten binding.

Binder	binding result
B1	binds
B2	binds
